Residue numbers refer to the chain shown, from its start.
B1: ISOP193AR9P1F4 (designed binder, not shown: small tags and cut ends)
chain: LPAPKNLVVSRVTEDSARLSWLEQEQFVNHFDSFLIQYQESEKVGEAIVLTVPGSERSYDLTGLKPGTEYTVSIYGVQYVDGFFKSNPLSAIFTT
B2: ISOP193ER9P1A10 (designed binder, not shown: small tags and cut ends)
chain: LPAPKNLVVSRVTEDSARLSWTAPDAAFDSFDIYYFEHPVGGEAIVLTVPGSERSYDLTGLKPGTEYLVTIYGVKGGHFSGPLSAIFTT
B3: ISOP193ER9P1G5 (designed binder, not shown: small tags and cut ends)
chain: B2 chain with H78Y, F79L, G81M
B4: ISOP193ER9P1D7 (designed binder, not shown: small tags and cut ends)
chain: B2 chain with F36G, P39W, V40K, G41L, H78M, F79S, G81N
B5: ISOP193ER9P1F9 (designed binder, not shown: small tags and cut ends)
chain: B2 chain with D32H, F36G, P39Y, V40N, G41L, H78F, F79W, G81T
B6: ISOP193ER9P1B4 (designed binder, not shown: small tags and cut ends)
chain: B2 chain with R11H, H78Y, F79L, G81M
B7: ISOP193BR9P1G9 (designed binder, not shown: small tags and cut ends)
chain: LPAPKNLVVSRVTEDSARLSWKQVTVAPEFDSFLIQYQESEKVGEAIVLTVPGSERSYDLTGLKPGTEYTVSIYGVKFPYYYATADSNPLSAIFTT
B8: ISOP193AR9P1B12 (designed binder, not shown: small tags and cut ends)
chain: LPAPKNLVVSRVTEDSARLSWTNEQITKYGFDSFLIQYQESEKVGEAIVLTVPGSERSYDLTGLKPGTEYTVSIYGVGAPYTVYDSNPLSAIFTT
B9: ISOP193AR9P1H8 (designed binder, not shown: small tags and cut ends)
chain: B8 chain with A79R, P80F, Y84F
B10: ISOP193AR9P1G5 (designed binder, not shown: small tags and cut ends)
chain: LPAPKNLVVSRVTEDSARLSWRISDRLPLFDSFLIQYQESEKVGEAIVLTVPGSERSYDLTGLKPGTEYTVSIYGVGRHYTVYDSNPLSAIFTT
B11: ISOP193BR9P1G3 (designed binder, not shown: small tags and cut ends)
chain: LPAPKNLVVSRVTEDSARLSWAQSNQQFDSFLIQYQESEKVGEAIVLTVPGSERSYDLTGLKPGTEYTVSIYGVVWQNWVAYNSNPLSAIFTT
B12: ISOP193AR9P1G8 (designed binder, not shown: small tags and cut ends)
chain: LPAPKNLVVSRVTEDSARLSWHATFGDPFDSFLIQYQESEKVGEAIVLTVPGSERSYDLTGLKPGTEYTVSIYGVGRHYTVYDSNPLSAIFTT
B13: ISOP193BR9P1E6 (designed binder, not shown: small tags and cut ends)
chain: LPAPKNLVVSRVTEDSARLSWGAITALFDSFLIQYQESEKVGEAIVLTVPGSERSYDLTGLKPGTEYTVSIYGVKFPYYYATADSNPLSAIFTT
B14: ISOP193AR9P1A6 (designed binder, not shown: small tags and cut ends)
chain: LPAPKNLVVSRVTEDSARLSWKFGEVAFDSFLIQYQESEKVGEAIVLTVPGSERSYDLTGLKPGTEYTVSIYGVGRHYTVYDSNPLSAIFTT
B15: ISOP193AR9P1C10 (designed binder, not shown: small tags and cut ends)
chain: B14 chain with K22P, F23N, G24H, E25I, V26S, A27I, H77F, Y81F
B16: ISOP193AR9P1E6 (designed binder, not shown: small tags and cut ends)
chain: B14 chain with G24H, E25S, V26P, A27T, F90V
B17: ISOP193AR9P1A11 (designed binder, not shown: small tags and cut ends)
chain: LPAPKNLVVSRVTEDSARLSWALSSVHAYFDSFLIQYQESEKVGEAIVLTVPGSERSYDLTGLKPGTEYTVSIYGVQYVDGFFKSNPLSAIFTT
B18: ISOP193BR9P1B12 (designed binder, not shown: small tags and cut ends)
chain: LPAPKNLVVSRVTEDSARLSWPDESRPVRFDSFLIQYQESEKVGEAIVLTVPGSERSYDLTGLKPGTEYTVSIYGVLRPWIYATNDSNPLSAIFTT
B19: ISOP193BR9P1H6 (designed binder, not shown: small tags and cut ends)
chain: B18 chain with L77V, R78G, P79Q, I81K, N85A
B20: ISOP193BR9P1H2 (designed binder, not shown: small tags and cut ends)
chain: B18 chain with L77H, R78T, P79R, W80D, I81W, Y82T, T84W, D86A
B21: ISOP193BR9P1G11 (designed binder, not shown: small tags and cut ends)
chain: LPAPKNLVVSRVTEDSARLSWAGHYRKIRNFDSFLIQYQESEKVGEAIVLTVPGSERSYDLTGLKPGTEYTVSIYGVKFPYYYATADSNPLSAIFTT
B22: ISOP193BR9P1G2 (designed binder, not shown: small tags and cut ends)
chain: B21 chain with K78A, F79E, P80H, Y81W, A86Q
B23: ISOP193BR9P1G6 (designed binder, not shown: small tags and cut ends)
chain: LPAPKNLVVSRVTEDSARLSWDDQFEDWFDSFLIQYQESEQVGEAIVLTVPGSERSYDLTGLKPGTEYTVSIYGVHTRDWTAWNASNPLSAIFTT
B24: ISOP193BR9P1H3 (designed binder, not shown: small tags and cut ends)
chain: LPAPKNLVVSRVTEDSARLSWNRLDSEWVAFDSFLIQYQESEKVGEAIVLTVPGSERSYDLTGLKPGTEYTVSIYGVVFRPWLAYNSNPLSAIFTT
B25: ISOP120FR5P1D7 (designed binder, not shown: small tags and cut ends)
chain: LPAPKNLVVSRVTEDSARLSWTAPDAAFDSFIIRYLEDISYGEAIVLTVPGSERSYDLTGLKPGTEYHVGIEGVKGGNVSWPLSAIFTT
B26: ISOP120FR5P1F8 (designed binder, not shown: small tags and cut ends)
chain: B25 chain

These binders were tested against unrelated Fc-fused recombinant protein (assay: ELISA, negative control Fc protein).

Row | ELISA Fc Control (RLU) | Binder
1 | 1520 RLU | B1
2 | 1120 RLU | B2
3 | 1440 RLU | B3
4 | 1680 RLU | B4
5 | 1840 RLU | B5
6 | 1600 RLU | B6
7 | 1200 RLU | B7
8 | 2240 RLU | B8
9 | 3040 RLU | B9
10 | 1120 RLU | B10
11 | 1360 RLU | B11
12 | 1440 RLU | B12
13 | 2560 RLU | B13
14 | 960 RLU | B14
15 | 3520 RLU | B15
16 | 1200 RLU | B16
17 | 1440 RLU | B17
18 | 14000 RLU | B18
19 | 8320 RLU | B19
20 | 11800 RLU | B20
21 | 56900 RLU | B21
22 | 15900 RLU | B22
23 | 2640 RLU | B23
24 | 2080 RLU | B24

What follows are binders tested against T1, human serum albumin (human, UniProt P02768 25-609) (assay: ELISA, negative control HSA).
T1 construct: Negative control of the ELISA; also called HSA
Protocol: (§1) Streptavidin-coated Maxisorp plates (Nunc catalog 436110) were blocked for 1 h in Starting Block T20 (Pierce) and then coated with biotinylated CD137 (using same antigen as in panning) or negative controls (an unrelated Fc-fused recombinant protein and human serum albumin) for 1 h. Plates were rinsed with TBST and diluted lysate was applied to plates for 1 h. Following additional rinses, wells were treated with HRP-conjugated anti-Centyrin antibody (PAB25) for 1 h and then assayed with POD (Roche catalog 11582950001).

T1 sequence (P02768 25-609 limits assumed): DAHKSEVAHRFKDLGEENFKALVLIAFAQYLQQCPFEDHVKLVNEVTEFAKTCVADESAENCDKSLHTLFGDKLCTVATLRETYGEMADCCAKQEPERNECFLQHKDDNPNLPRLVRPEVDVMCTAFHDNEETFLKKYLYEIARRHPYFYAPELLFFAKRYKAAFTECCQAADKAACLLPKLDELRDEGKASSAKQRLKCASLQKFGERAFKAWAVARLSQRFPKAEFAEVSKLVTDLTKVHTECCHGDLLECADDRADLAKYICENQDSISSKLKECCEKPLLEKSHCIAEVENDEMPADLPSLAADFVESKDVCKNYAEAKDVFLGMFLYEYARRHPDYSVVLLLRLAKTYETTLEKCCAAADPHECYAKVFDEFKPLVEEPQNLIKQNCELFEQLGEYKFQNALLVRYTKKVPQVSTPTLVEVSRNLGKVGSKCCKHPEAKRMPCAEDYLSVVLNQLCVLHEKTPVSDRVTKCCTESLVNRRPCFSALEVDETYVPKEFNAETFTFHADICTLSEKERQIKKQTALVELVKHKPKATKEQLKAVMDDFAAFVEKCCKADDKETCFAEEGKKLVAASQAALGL

Row | ELISA HSA (RLU) | Binder
25 | 720 RLU | B1
26 | 240 RLU | B2
27 | 400 RLU | B4
28 | 400 RLU | B5
29 | 320 RLU | B6
30 | 720 RLU | B7
31 | 1440 RLU | B8
32 | 1040 RLU | B9
33 | 720 RLU | B10
34 | 640 RLU | B11
35 | 720 RLU | B12
36 | 560 RLU | B13
37 | 480 RLU | B14
38 | 960 RLU | B15
39 | 720 RLU | B16
40 | 320 RLU | B17
41 | 2880 RLU | B18
42 | 2880 RLU | B19
43 | 3280 RLU | B20
44 | 9600 RLU | B21
45 | 2160 RLU | B22
46 | 960 RLU | B23
47 | 1360 RLU | B24

What follows are binders tested against T2, recombinant biotinylated CD137 protein (Fc-fusion protein, R&D Systems 838-4B) (human, UniProt Q07011 24-186, biotinylated, sites not stated) (assay: ELISA, lysate on biotinylated CD137-Fc).
T2 construct: Bought Fc fusion; also called CD137-Fc
Protocol: as §1

Row | ELISA CD137 (RLU) | Binder
48 | 3.84e+06 RLU | B1
49 | 1.49e+07 RLU | B2
50 | 1.1e+07 RLU | B4
51 | 1.5e+07 RLU | B5
52 | 1.61e+07 RLU | B6
53 | 3.73e+06 RLU | B7
54 | 2.76e+06 RLU | B8
55 | 3.72e+06 RLU | B9
56 | 4.02e+06 RLU | B10
57 | 4.71e+06 RLU | B11
58 | 4.26e+06 RLU | B12
59 | 4.63e+06 RLU | B13
60 | 6.74e+06 RLU | B14
61 | 7.14e+06 RLU | B15
62 | 4.18e+06 RLU | B16
63 | 8.66e+06 RLU | B17
64 | 6.55e+06 RLU | B18
65 | 8.86e+06 RLU | B19
66 | 3.5e+06 RLU | B20
67 | 4.99e+06 RLU | B21
68 | 6.15e+06 RLU | B22
69 | 8.09e+06 RLU | B23
70 | 5.26e+06 RLU | B24

Each binder was assayed against unrelated Fc-fused recombinant protein (negative control) (assay: ELISA, bacterial lysate on plate-bound antigen, luminescence).

Row | ELISA Fc Control (RLU) | Binder
71 | 400 RLU | B25
72 | 240 RLU | B26

Source: US20220259289A1 (Janssen / Centocor, published 2022)
